Experiments:
Saccharomyces cerevisiae [1] = assay: protein stability index of tFT-peptide fusion in wild type (PSI (0-1 scale)); higher = more stable (slower turnover); details: genetic background: wild type
Protocol: (§1)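 MPS profiling in S. cerevisiae of two library types built from selected 12-aa C-degron peptides (IN1, IN2, LN1, LN3, VN2, R1-R5, W1-W3, Atg1 and Rpa12 C-termini): saturation mutagenesis libraries and C-terminal +1 capping libraries (13 aa). Each peptide is fused to the C-terminus of a sfGFP-mCherry timer, after a GGGS linker. Cells are FACS-sorted into 8 mCherry/sfGFP bins and sequenced. PSI runs from 0 (unstable) to 1 (stable), measured once in wild type and in the das1Δ or doa10Δ background.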

Saccharomyces cerevisiae [2] = assay: protein stability index of tFT-peptide fusion in deletion strain of DAS1 (PSI (0-1 scale)); higher = more stable (slower turnover)
Protocol: as §1
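Wherever protein stability index of tFT-peptide fusion in deletion strain of DAS1 is given: PSI is a weighted mean of each variant's read distribution over the sorted stability bins, computed only for variants having over 10 reads in total.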
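Wherever protein stability index of tFT-peptide fusion in wild type is given: PSI derived as read-weighted mean over the 8 sorting bins, only variants exceeding 10 total reads kept, mCherry placed adjacent to the peptide and sfGFP distal.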

| Sequence | protein stability index (Saccharomyces cerevisiae [1]) | protein stability index (Saccharomyces cerevisiae [2]) |
| --- | --- | --- |
| RLIQPLPVQFLNG | 0.626 | 0.655 |
| VRGAVGGWMLVG | 0.456 | 0.698 |
| VRGAVGGWRLVGC | 0.638 | 0.694 |
| PDKRNHQIKLLN | 0.127 | 0.609 |
| FSMFWTFRYWVN | 0.0733 | 0.403 |
| FSMRCTFRYWVN | 0.0458 | 0.522 |
| VSGAVGGWRLVG | 0.143 | 0.672 |
| PDKRNHLIDLLN | 0.591 | 0.624 |
| PSLAASFQRVVG | 0.692 | 0.672 |
| KKHKKGQHQKIN | 0.0824 | 0.579 |
| ARCRVGLWRGAS | 0.597 | 0.706 |
| MKHKKGQKQKIN | 0.0627 | 0.649 |
| VRGAVGDWRLVG | 0.215 | 0.658 |
| KKHKKGQKYKIN | 0.199 | 0.634 |
| LVVFLSCVACIN | 0.0196 | 0.0386 |
| VRGATGGWRLVG | 0.188 | 0.682 |
| KKHKKGQCQKIN | 0.16 | 0.801 |
| PRWRVGLWRGAS | 0.364 | 0.707 |
| RLIQPLPVQFLNW | 0.667 | 0.686 |
| RRIQPLPVQFLN | 0.0626 | 0.601 |
| FSMRWTTRYWVN | 0.0528 | 0.566 |
| LKILRWKMNHQN | 0.209 | 0.658 |
| LVVALSCVACIN | 0.0223 | 0.0802 |

| Sequence | protein stability index (Saccharomyces cerevisiae [1]) | protein stability index (Saccharomyces cerevisiae [2]) |
| --- | --- | --- |
| ARWRVGLWRGASV | 0.675 | 0.676 |
| VRGAVGGWQLVG | 0.28 | 0.689 |
| PDKRNHLIKSLN | 0.298 | 0.627 |
| ARWRYGLWRGAS | 0.489 | 0.678 |
| VRGAVGGLRLVG | 0.628 | 0.681 |
| KKLKKGQKQKIN | 0.0797 | 0.594 |
| PSLAASFWRVVGD | 0.689 | 0.691 |
| LKILRQKMNHVN | 0.206 | 0.666 |
| ARQRVGLWRGAS | 0.6 | 0.694 |
| FSMRYTFRYWVN | 0.0639 | 0.648 |
| ARWRVHLWRGAS | 0.294 | 0.695 |
| AWWRVGLWRGAS | 0.504 | 0.68 |
| LKILRFKMNHQN | 0.201 | 0.667 |
| KKHEKGQKQKIN | 0.0983 | 0.603 |
| LKILRYKMNHQN | 0.181 | 0.64 |
| FSMRWTFRYGVN | 0.338 | 0.527 |
| PGLAASFWRVVG | 0.172 | 0.695 |
| ARWRVGLWRGGS | 0.672 | 0.684 |
| FSMRWTFRDWVN | 0.595 | 0.724 |
| LKILRQKPNHQN | 0.68 | 0.675 |
| VRGAVKGWRLVG | 0.148 | 0.68 |
| VRGCVGGWRLVG | 0.148 | 0.655 |
| VLGAVGGWRLVG | 0.133 | 0.673 |

| Sequence | protein stability index (Saccharomyces cerevisiae [1]) | protein stability index (Saccharomyces cerevisiae [2]) |
| --- | --- | --- |
| ARWRVGLWRRAS | 0.093 | 0.673 |
| CTSCGYKFRTNC | 0.224 | 0.699 |
| PSLAASFWMVVG | 0.525 | 0.637 |
| ARWEVGLWRGAS | 0.458 | 0.648 |
| VRGAEGGWRLVG | 0.242 | 0.686 |
| ARWRVGLWCGAS | 0.567 | 0.561 |
| FSMRWTFRYKVN | 0.0899 | 0.691 |
| ARWRVGEWRGAS | 0.677 | 0.684 |
| PSLATSFWRVVG | 0.158 | 0.687 |
| ARWRVGLWNGAS | 0.634 | 0.664 |
| NTSCGYKFRTNN | 0.217 | 0.68 |
| VKHKKGQKQKIN | 0.105 | 0.716 |
| NDKRNHLIKLLN | 0.128 | 0.609 |
| KKHKKGQKQKINA | 0.259 | 0.655 |
| PSLAASFWRVVF | 0.699 | 0.701 |
| KKHKKGRKQKIN | 0.0973 | 0.586 |
| PSLAASFTRVVG | 0.647 | 0.648 |
| LKILRPKMNHQN | 0.541 | 0.669 |
| LKILRQKMNHQNN | 0.585 | 0.671 |
| FKHKKGQKQKIN | 0.123 | 0.586 |
| LKKLRQKMNHQN | 0.235 | 0.68 |
| PDKRNHLMKLLN | 0.089 | 0.592 |
| KKHKKGMKQKIN | 0.0523 | 0.659 |

| Sequence | protein stability index (Saccharomyces cerevisiae [1]) | protein stability index (Saccharomyces cerevisiae [2]) |
| --- | --- | --- |
| CTSCGYFFRTNN | 0.222 | 0.695 |
| RQIQPLPVQFLN | 0.124 | 0.604 |
| LKILRQKMPHQN | 0.681 | 0.692 |
| KKHKKGQKQKSN | 0.553 | 0.615 |
| RLIQPVPVQFLN | 0.123 | 0.583 |
| VVGAVGGWRLVG | 0.125 | 0.69 |
| FSMRWTFTYWVN | 0.0917 | 0.389 |
| LVVYLKCVACIN | 0.0164 | 0.0351 |
| CTSCGYKFRTNP | 0.689 | 0.701 |
| LVVYLSCVACTN | 0.0171 | 0.0308 |
| ARWRVGLWRGAN | 0.121 | 0.687 |
| RLIQPLPTQFLN | 0.215 | 0.638 |
| VRYAVGGWRLVG | 0.0921 | 0.68 |
| PSLAAYFWRVVG | 0.142 | 0.677 |
| GDKRNHLIKLLN | 0.158 | 0.613 |
| VRGAVGGWRLVS | 0.148 | 0.686 |
| ARWRVGLDRGAS | 0.665 | 0.687 |
| PSLAAWFWRVVG | 0.147 | 0.706 |
| ARWRVFLWRGAS | 0.432 | 0.674 |
| LVVYLSCVACGN | 0.0824 | 0.0998 |
